Measurements as given in PMC9992347 (Molecular cell, 2023).

B1: SPOP^1-374 W22R (natural protein, human, UniProt O43791 1-374, looked up)
chain: MSRVPSPPPPAEMSSGPVAESRCYTQIKVVKFSYMWTINNFSFCREEMGEVIKSSTFSSGANDKLKWCLRVNPKGLDEESKDYLSLYLLLVSCPKSEVRAKFKFSILNAKGEETKAMESQRAYRFVQGKDWGFKKFIRRDFLLDEANGLLPDDKLTLFCEVSVVQDSVNISGQNTMNMVKVPECRLADELGGLWENSRFTDCCLCVAGQEFQAHKAILAARSPVFSAMFEHEMEESKKNRVEINDVEPEVFKEMMCFIYTGKAPNLDKMADDLLAAADKYALERLKVMCEDALCSNLSVENAAEILILADLHSADQLKTQAVDFINYHASDVLETSGWKSMVVSHPHLVAEAYRSLASAQCPFLGPPRKRLKQS
B2: SPOP^1-374 W131G (natural protein, human, UniProt O43791 1-374, looked up)
chain: MSRVPSPPPPAEMSSGPVAESWCYTQIKVVKFSYMWTINNFSFCREEMGEVIKSSTFSSGANDKLKWCLRVNPKGLDEESKDYLSLYLLLVSCPKSEVRAKFKFSILNAKGEETKAMESQRAYRFVQGKDGGFKKFIRRDFLLDEANGLLPDDKLTLFCEVSVVQDSVNISGQNTMNMVKVPECRLADELGGLWENSRFTDCCLCVAGQEFQAHKAILAARSPVFSAMFEHEMEESKKNRVEINDVEPEVFKEMMCFIYTGKAPNLDKMADDLLAAADKYALERLKVMCEDALCSNLSVENAAEILILADLHSADQLKTQAVDFINYHASDVLETSGWKSMVVSHPHLVAEAYRSLASAQCPFLGPPRKRLKQS
B3: SPOP^1-374 E47K (natural protein, human, UniProt O43791 1-374, looked up)
chain: MSRVPSPPPPAEMSSGPVAESWCYTQIKVVKFSYMWTINNFSFCREKMGEVIKSSTFSSGANDKLKWCLRVNPKGLDEESKDYLSLYLLLVSCPKSEVRAKFKFSILNAKGEETKAMESQRAYRFVQGKDWGFKKFIRRDFLLDEANGLLPDDKLTLFCEVSVVQDSVNISGQNTMNMVKVPECRLADELGGLWENSRFTDCCLCVAGQEFQAHKAILAARSPVFSAMFEHEMEESKKNRVEINDVEPEVFKEMMCFIYTGKAPNLDKMADDLLAAADKYALERLKVMCEDALCSNLSVENAAEILILADLHSADQLKTQAVDFINYHASDVLETSGWKSMVVSHPHLVAEAYRSLASAQCPFLGPPRKRLKQS

Tests used:
cryo-EM structure = target: the molecule itself; assay: cryo-EM structure
[1] = target: the molecule itself; assay: small-angle X-ray scattering

Row | Protein | binding result (cryo-EM structure) | binding result [1]
1 | B1 | binds | –
2 | B2 | – | binds
3 | B3 | binds | –
